“Also recorded” adds a separate entry of the source. Read-outs that look alike come from different tables or passages of the source.
Experiments:
[1] = test system: PC3-ML cells; details: for bone metastasis (BLI signal / luciferase intensity): MDA-7/IL-24 protein 5 mg/kg tail vein, 6 doses over three weeks, vs untreated control; for survival: MDA-7/IL-24 protein 5 mg/kg, 6 doses; for toxicity in animals: delivered repeatedly systemically in mice
Procedure: In vivo Metastasis Studies: All animal studies were approved by the Institutional Animal Care and Use Committee (Virginia Commonwealth University). For experimental bone metastasis assays, 6-8-week-old male athymic nude mice (purchased from Harlan, USA) were injected with 1×10^5 PC3-ML cells stably expressing firefly luciferase gene through an intracardiac route. For determining the therapeutic activity of MDA-7/IL-24 protein, mice received an intravenous injection of recombinant protein (5 mg/kg), one day after implantation of cells. Animals were treated with therapeutics for a total of 6 times (2× a week for first 3 weeks). […] Image of the bone region was monitored by a BLI (bioluminescence imaging) method using an IVIS® imaging system (15, 19, 20).
In this model, stable luciferase expressing PC3-ML cells were injected in male athymic nude mice through an intracardiac route to produce bone metastases. The expansion, invasion, and migration of PC3-ML cells were monitored by IVIS® imaging (15, 20, 23). […] BLI imaging followed development of metastatic lesions in bone. […] To determine the effect of MDA-7/IL-24 on primary bone marrow in animals, cells from the bone cavity were isolated and treated with His-MDA-7 at different doses in vitro.

[2] = test system: p27, GRP78, and Beclin-1; test: Western blotting of downstream MDA-7/IL-24 signaling molecules in PC3-ML cells; type: cell-based; details: western blot, vs untreated control
Description: Western Blotting: Standard protocols were followed for Western blotting assays (24, 27). The primary antibodies used were pAkt, Akt, pGSK3β, GSK3β, NFATc1, cyclin D1 (Cell Signaling Technology, Danvers, Mass., USA) and EF1α (Abeam, Cambridge, United Kingdom). Appropriate secondary antibodies were purchased from Sigma-Aldrich, Inc. St. Louis, Mo., USA).
After purification, the quality of the purified protein was confirmed using anti-MDA-7 antibody by western blotting (FIG. 1B). To confirm biological activity, PC3-ML cells were treated with MDA-7/IL-24 protein, and anti-proliferative and potential molecular changes were evaluated by MTT assays and western blotting analyses, respectively (FIGS. 1C and 1D). […] Next, to evaluate the long-term effect of MDA-7/IL-24 on cell proliferation, colony formation (clonal) assays were performed in an assortment of PC cell lines.

[3] = listed as recombinant MDA-7/IL-24

B1: MDA-7/IL-24 protein: Recombinant His-tagged MDA-7/IL-24 protein purified on Ni-NTA from supernatant of IM-PHFA cells infected with Ad.5-His-mda-7 (protein)
chain: QEFHFGPCQVKGVVPQKLWEAFWAVKDTMQAQDNITSARLLQQEVLQNVSDAESCYLVHTLLEFYLKTVFKNYHNRTVEVRTLKSFSTLANNFVLIVSQLQPSQENEMFSIRDSAHRRFLLFRRAFKQLDVEAALTKALGEVDILLTWMQKFYKL
[1]
  bone metastasis (BLI signal / luciferase intensity): significantly fewer metastatic lesions
  survival: enhancement of survival
  toxicity in animals: non-toxic
[1]; listed as MDA-7/IL-24
  bone metastasis (BLI signal / luciferase intensity): significantly less evidence of metastasis; also recorded: a significant decrease in metastasis; also recorded: significant inhibition in luciferase intensity
  survival: increased
[1]; [3]
  bone metastasis (BLI signal / luciferase intensity): significantly less metastatic lesions in their femurs; also recorded: significantly reduced the occurrence of bone metastasis
  toxicity in animals: without promoting toxicity
[1]; six doses of MDA-7/IL-24 protein 5 mg/kg
  development of lung metastases: suppressed development of lung metastases
[2]
  levels of p27, GRP78, and Beclin-1: Significant increases; also recorded: up-regulation of expression

Reference: patent publication US20210187071A1, “COMPOSITIONS COMPRISING MDA-7/IL-24 PROTEIN AND METHODS OF USE” (VIRGINIA COMMONWEALTH UNIVERSITY, priority 2017, published 2021)
